Molecular target: thrombin (of the antithrombin activity assay, species not stated)
Assay: cell-based or functional assay

Binder | antithrombin activity (ATU/mg)
NGDFEEIPEEYL (not fully specified) [hirugen (printed 'Hirogen')] | 1000
recombinant chimeric protein of neutrophil inhibitory factor and hirugen (TNHH), Met-NIF-GGGGG-FPRPGSGG-Hirugen (other) MNEHNLRCPQNGTEMPGFNDSIRLQFLAMHNGYRSKLALGHISITEESESDDDDDFGFLPDFAPRASKMRYLEYDCEAEKSAYMSARNCSDSSSPPEGYDENKYIFENSNNISEAALKAMISWAKEAFNLNKTKEGEGVLYRSNHDISNFANLAWDAREKFGCAVVNCPLGEIDDETNHDGETYATTIHVVCHYPKINKTEGQPIYKVGTPCDDCSEYTKKADNTTSADPVCIPDDGVCFIGSKADYDSKEFYRFRELGGGGGFPRPGSGGNGDFEEIPEEYL | 1200
TNHH-G15/n3, NIF-(Gly)15-FPRP-(GSGG)3-hirugen (other) MNEHNLRCPQNGTEMPGFNDSIRLQFLAMHNGYRSKLALGHISITEESESDDDDDFGFLPDFAPRASKMRYLEYDCEAEKSAYMSARNCSDSSSPPEGYDENKYIFENSNNISEAALKAMISWAKEAFNLNKTKEGEGVLYRSNHDISNFANLAWDAREKFGCAVVNCPLGEIDDETNHDGETYATTIHVVCHYPKINKTEGQPIYKVGTPCDDCSEYTKKADNTTSADPVCIPDDGVCFIGSKADYDSKEFYRFRELGGGGGGGGGGGGGGGFPRPGSGGGSGGGSGGNGDFEEIPEEYL | 1200
NIF-hirudin hybrid (NHH), NIF-(Gly)5-hirugen (other) NEHNLRCPQNGTEMPGFNDSIRLQFLAMHNGYRSKLALGHISITEESESDDDDDFGFLPDFAPRASKMRYLEYDCEAEKSAYMSARNCSDSSSPPEGYDENKYIFENSNNISEAALKAMISWAKEAFNLNKTKEGEGVLYRSNHDISNFANLAWDAREKFGCAVVNCPLGEIDDETNHDGETYATTIHVVCHYPKINKTEGQPIYKVGTPCDDCSEYTKKADNTTSADPVCIPDDGVCFIGSKADYDSKEFYRFRELGGGGGNGDFEEIPEEYL | 800
